assay: soluble on expression in E. coli; label from the status in PepcDB or PDB records

Which “soluble on expression in E. coli” value does the source give for “MKFSDFFHAWLHESYYKNAVSIGKNGDFFTAVSVGNLFGTLLAKHFLNLIDEKILKPPLELVEIGANEGYLSRDFLAALLELRPEIFSQISFFIIEPHEKLRTLQKKTLEGVEFTHKNSLKECHFKNAFFFCNELFDSFTCELIDHDKMAFVENFKLIFKNMDENLITKCKALNLTKGELSLELENFFKDLNQTCERFIFAGFDYGTLNPQSFSLRIYQKHEVFSPFEVSLKDFFGKSDLTYNVNFTHLQKLIKEYDFKPLAFKKQSLAFMDFGFEDLLEYAKNKNIKTYESFLSQAKILFFNFDEKFHFFEFQKNMGHHHHHHSH” here?
Its value is “soluble”.

For “MKFSVLTLFPQLVWPYFEDSILKRALEKNLFELEVLNLRDFSANKYQKADHTLIGGGAGQILDPEMVENALHSVKNPKHTIFLSAVGKPFKQTDAMRLAQKKHVVLVCGRYEGFDERSIELGADEVFCIGDFILTGGELGALCLIDSIARHIQGVLGNAQSLENESFENHYLEAPNFANAVFKSKEINKIPAPLEYSKGNHAKIKQLKLDLSKLRTKFYRLDLFKQHKSLEHHHHHH”, which “soluble on expression in E. coli” value is on record?
Its value is “not soluble”.

With “MKFVVASYGTRGDIEPCAAVGLELQRRGHDVCLAVPPNLIGFVETAGLSAVAYGSRDSQEQLDEQFLHNAWKLQNPIKLLREAMAPVTEGWAELSAMLTPVAAGADLLLTGQIYQEVVANVAEHHGIPLAALHFYPVRANGEIAFPARLPAPLVRSTITAIDWLYWRMTKGVEDAQRRELGLPKASTPAPRRMAVRGSLEIQAYDALCFPGLAAEWGGRRPFVGALTMESATDADDEVASWIAADTPPIYFGFGSMPIGSLADRVAMISAACAELGERALICSGPSDATGIPQFDHVKVVRVVSHAAVFPTCRAVVHHGGAGTTAAGLRAGIPTLILWVTSDQPIWAAQIKQLKVGRGRRFSSATKESLIADLRTILAPDYVTRAREIASRMTKPAASVTATADLLEDAARRAR” as the sequence, how does the “soluble on expression in E. coli” value read?
Its value is “not soluble”.

With “MKGDVSPIFSPKHLQFKRPTLWRYGRIQKISIMSSKRSSPTGKLRLLSFLRDLLEDESNSDIIYWFDKSESVFKMSKPHKVAELWGAATGNPGMNYDKMSRGLRYFYTNNTLEKVPGKDARYRFIDSPRHSFLDFSMKTELETPVKRTPLFNISNLISDFEVSNNSLTSSPTSSASSVEPSSPTTTESSLDPSQFVQLTQNLVQFNTFMSQNPMFHTLPLPTQLQVFFNFKTIFPSLFPALV” as the sequence, how does the “soluble on expression in E. coli” value read?
Its value is “not soluble”.

With “MKGLYPESVISRFDFAVTEDNKIKMLEFNSDTPTFIVECFQMNGKVCGNLGYDDPNSDQERLLSSGVTKAVMEATKGLDNPNVVFTAHHEHIEDWNTTMYLSQLCHVENKVVPMSELRITKDALVDKDGAKIDVLYRQTYPIEDLIEDQDPETGDLVGVELLQLVKAGKLFIINPLSAFLLQPKSIQCLIWGLAEEEAFYTNEEQQWIKEYMLPTYLEPDLFLGKGSFVQKPSFGREGDTITIRDKDENIMLQNAHQTYKASLPIFQKYIELPVVSLETEKGIEKLSYVFGSFLIAGKASSIGIRAGEKITGNESYYLPVGIKRRGKND” as the sequence, how does the “soluble on expression in E. coli” value read?
Its value is “not soluble”.

With “MKGYSMAKCLTLNTHSWMEVNALKKLFDLAEHIFREKYDIICLQEVNQSISSPLAKSSPNYHPIEGTPALHQDNFALQLVHYLNLQGLHYHWTWAYNHIGYSKYHEGVAILSLKPLKPEDILVSAVDDETDYHTRRALVAETTLNDKVVTVVSLHFSWFEKGFAEEWKRLETTLLEVETPLLLMGDFNNPTGNQGYELVLNSPLALKDSHQIANHVFGDHTIMADIDGWEGNKKALKVDHIFTSEDLSISSSQVVFEGGEAPVVSDHYGLEITMDF” as the sequence, how does the “soluble on expression in E. coli” value read?
Its value is “not soluble”.

For “MKHEIKHDPAFRALTPKWHHGYRFQYEPAQKAHVVLYPEGMIKLNDSASLIGGLIDGERTIAAIIAELQREFPNIPELGMDVDDFMKVAKEKYWIDLV”, which “soluble on expression in E. coli” value is on record?
The value was “not soluble”.

For “MKHHHHHHPMVKEYKTITQIAGPLIFVEKTEPVGYNEIVNIKMGDGTVRRGQVLDSSADIVVVQVFEGTGGLDKDCGVIFTGETLKLPASVDLLGRILSGSGEPRDGGPRIVPDQLLDINGAAMNPYARLPPKDFIQTGISTIDGTNTLVRGQKLPIFSASGLPHNEIALQIARQASVPGSESAFAVVFAAMGITNEEAQYFMSDFEKTGALERAVVFLNLADDPAVERIVTPRMALTAAEYLAYEHGMHVLVILTDITNYAEALRQMGAARNEVPGRRGYPGYMYTDLATLYERAGIVKGAKGSVTQIPILSMPGDDITHPIPDLSGYITEGQIVVARELHRKGIYPPINVLPSLSRLMNSGIGAGKTREDHKAVSDQMYAGYAEGRDLRGLVAIVGKEALSERDTKFLEFADLFEDKFVRQGWNENRTIEDTLEIGWQILTHLPENQLGRIDNKYIQKYHPAHRKAK”, which “soluble on expression in E. coli” value is on record?
Its value is “soluble”.

For “MKHSLPDLPYDYGALEPHINAQIMQLHHSKVHAAYVNNLNVTEEKYQEALAKGDVTAQIALQPALKFNGGGHINHSIFWTNLSPNGGGEPKGELLEAIKRDFGSFDKFKEKLTAASVGVQGSGWGWLGFNKERGHLQIAACPNQDPLQGTTGLIPLLGIDVWEHAYYLQYKNVRPDYLKAIWNVINWENVTERYMACKK”, which “soluble on expression in E. coli” value is on record?
Its value is “soluble”.

For “MKIAAIYTQSVGPLPDGEIRFENDWSGEIESNVLITGPNGCGKSTLLRAISLLWRAFGHWLGTGTRLNIKDESYTWFYRWDASCAMILDSFSPKSEDQIGLFLGSEAFLVQLKEKYPQVYWLGETVSRTKGTTPETTVFTSSEHFFLPYKNWWSHWSSQYQRLVLKGPSVDMPNLVYLDAEARRWVRPQKDIGSLSPDDSTQAWLATYEVNDNWKGQLESSLFNMKATMPGEYPEMIATLNQFFSGKRIEAEIHPGQRQRVLLDSGNDHSLDALSSGEHQVLIMLFTVQRWLQPGGVVLIDEPDLHLHPSLISPLLASIENIVARKNGQLVMTSHATDIWQRYDNMGLRIDLTDGKDAENGQRLEHHHHHH”, which “soluble on expression in E. coli” value is on record?
The value was “soluble”.

For “MKIAFIGEAVSGFGGMETVISNVIHTFENSSPKINCEMFFFCRNDKMDKAWLKEIKYAQSFSNIKLSFLRRAKHVYNFSQWLKETSPDIVICIDVISCLYANKARKKSGKHFTIFSWPHFSLDHKKHAECITYADYHLAISSGIKEQIMARGISAQDISVVYNPVSIKTVIVPPPERDKPAVFLYVGRLKFEGQKRVKDLFDGLARTTGEWQLHIIGDGSDFEKCQAYSRELGIEQRVIWYGWQSAPWQVVQQKIKNVTALLLTSAFEGFPMTLLEAMSYGIPCISSDCMSGPRDMIKPGLNGELYTPGAIDDFVGHLNRVISGEVKYQHDIIPGTIERFYDVLYFKNFNNAIFSKLQK”, which “soluble on expression in E. coli” value is on record?
The value was “not soluble”.

With “MKIAIFSKLTIKEDEIRKKLGNYDVDIFPPIKRGDLTSEKIFDYDIIGIIDGCFLQSTAVAHREILKVIENNITVFGAGSMGALRASELDTCGMIGVGLVYNLYKNGIISDDDEVAVTFDDNLNQITFSMISFREMIKNALNEKIIDEDDSKRLINSGKELYYPLRTFENVIEKSKISGEKREVLEKFLKNQPDIKRNDAFEMLEEIIKYIEKQ” as the sequence, how does the “soluble on expression in E. coli” value read?
Its value is “not soluble”.

With “MKIAIINMGNNVINFKTVPSSETIYLFKVISEMGLNVDIISLKNGVYTKSFDEVDVNDYDRLIVVNSSINFFGGKPNLAILSAQKFMAKYKSKIYYLFTDIRLPFSQSWPNVKNRPWAYLYTEEELLIKSPIKVISQGINLDIAKAAHKKVDNVIEFEYFPIEQYKIHMNDFQLSKPTKKTLDVIYGGSFRSGQRESKMVEFLFDTGLNIEFFGNAREKQFKNPKYPWTKAPVFTGKIPMNMVSEKNSQAIAALIIGDKNYNDNFITLRVWETMASDAVMLIDEEFDTKHRIINDARFYVNNRAELIDRVNELKHSDVLRKEMLSIQHDILNKTRAKKAEWQDAFKKAIDL” as the sequence, how does the “soluble on expression in E. coli” value read?
Its value is “soluble”.

For “MKIDRLKTDLAKAREKAAEWQARVRDLEKQITEQENLEILQVVRSVAASPEELRGLLDMIRGAKMPMAGTARTFENMDKEEI”, which “soluble on expression in E. coli” value is on record?
Its value is “not soluble”.

For “MKIFAVVVTYNRLALLKKVIDLLKRQTRQLDSIVIVNNGSTDGTKEWLEQEKNITLINQSNSGGAGGFETGVKYAYENEADWIWMMDDDVFPNIDCLEKLLGWTSISQCIQPRRYYSDDVEVNFEQWLDPITYSKFGYWQEKSFNNGKKFCAINVGCFEGMFVSKSIVNKIGFPDKRFFIAEDDTIYGFAASFYTNVILVSDAIMVRARRSSDRSVSPMYTYYACRNFHLVYESLNLLLDKKNRFLYIKYIYQFVHQIYLSIFLYDNKMKHLISVFRGFYDCFRKKNGATYLEHHHHHH”, which “soluble on expression in E. coli” value is on record?
Its value is “not soluble”.

— the DeepSol protein solubility set
